We go through 2 molecules from US20220324970A1 (Janssen / Centocor, published 2022).

As usually defined, the koff is the first-order rate constant of dissociation. A high value points to fast dissociation. One may read the kon as the rate constant with which the complex forms. Read a high kon as faster complex formation. One may read the Kd as the equilibrium constant for the complex coming apart. A high value points to weaker binding. By EC50 is commonly meant the concentration giving half of the maximal effect. Read a low EC50 as higher potency in that assay.

For experiment [1], the target named is T1, human pIgR extracellular domain 4-domain 5 (D4-D5) (human, UniProt P01833 350-565).
T1 construct: HIS-tagged construct made in HEK293 cells; also called hpIgR domains 4-5
T1 chain: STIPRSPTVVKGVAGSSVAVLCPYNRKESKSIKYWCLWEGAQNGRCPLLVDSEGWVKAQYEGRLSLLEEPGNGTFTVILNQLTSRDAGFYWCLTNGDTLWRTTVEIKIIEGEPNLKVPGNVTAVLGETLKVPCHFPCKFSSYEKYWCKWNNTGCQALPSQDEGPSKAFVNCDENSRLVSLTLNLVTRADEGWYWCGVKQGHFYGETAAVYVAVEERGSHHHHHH
The experiment in a line: BLI: IgA binding to immobilized HIS-tagged hD4-D5. Background: BLI is a label-free optical method that tracks binding on a fibre tip over time.

A further experiment has as its target T2, hD3-D4 (human, UniProt P01833).
T2 construct: HIS-tagged two-domain construct; also called human pIgR extracellular domain 3-domain 4 (D3-D4)
The experiment in a line: BLI response heat map (0-1.0 nm), HIS-tagged pIgR construct immobilized.

Experiment [2] concerns the target T3, hpIgR_D3.
T3 construct: HIS-tagged construct from HEK293 cells; also called human pIgR extracellular domain 3 (D3); hD3
T3 HIS-tagged domain construct: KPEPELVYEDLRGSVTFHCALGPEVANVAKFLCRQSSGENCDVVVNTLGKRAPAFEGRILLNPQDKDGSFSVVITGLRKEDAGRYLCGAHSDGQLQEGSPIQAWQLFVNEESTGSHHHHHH
The description is as above.

Experiment [3] addresses T4, hpIgR_D2-D3.
T4 construct: HIS-tagged construct from HEK293 cells; also called human pIgR extracellular domain 2-domain 3 (D2-D3); hD2-D3
T4 HIS-tagged domain construct: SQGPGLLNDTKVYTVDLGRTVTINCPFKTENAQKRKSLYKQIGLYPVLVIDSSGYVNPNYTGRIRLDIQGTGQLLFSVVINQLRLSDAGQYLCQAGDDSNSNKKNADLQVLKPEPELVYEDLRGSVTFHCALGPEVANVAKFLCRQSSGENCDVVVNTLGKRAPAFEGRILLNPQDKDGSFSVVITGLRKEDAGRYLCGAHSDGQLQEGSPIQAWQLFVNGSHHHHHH
The description is as above.

Experiment [4] deals with T5, hpIgR domain-1 with teleost fish CDR1 (hD1 tCDR1) (human, UniProt P01833 19-127, limits assumed).
T5 construct: CDR-swapped hpIgR domain-1 mutant, HIS-tagged, made in HEK293 cells; not shown: HIS tag
The description is as above.

Experiment [5] deals with T6, hpIgR domain-1 with teleost fish CDR2 (hD1 tCDR2) (human, UniProt P01833 19-127, limits assumed).
T6 construct: CDR-swapped hpIgR domain-1 mutant, HIS-tagged, made in HEK293 cells; not shown: HIS tag
T6 chain: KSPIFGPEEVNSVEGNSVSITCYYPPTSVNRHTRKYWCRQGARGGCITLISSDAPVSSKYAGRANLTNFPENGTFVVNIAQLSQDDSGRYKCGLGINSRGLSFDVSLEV
The experiment is described as above.

Experiment [6] deals with T7, human pIgR extracellular domain 2 (D2) (human, UniProt P01833 128-242).
T7 construct: HIS-tagged construct made in HEK293 cells; also called hpIgR domain 2
The description is as above.

Experiment [7] addresses T8, human pIgR extracellular domain 5 (D5) (human, UniProt P01833 460-565).
T8 construct: HIS-tagged construct made in HEK293 cells; also called hpIgR domain 5
The experiment is described as above.

For experiment [8], the target named is T1, human pIgR extracellular domain …. As to the kind of experiment: BLI: IgA binding to immobilized HIS-tagged hD4-D5; sheet says 'IgA binds hD4-D5 weakly'.
Experiment [9] has as its target T9, human pIgR, full-length, on cells (human, UniProt P01833 19-764). The experiment in a line: cell-based or functional assay.
Experiment [10] concerns the target T9, human pIgR, full-length, on cells. As to the kind of experiment: cell-based or functional assay. The source holds these as a separate data set.
The target is the same in experiment [11]. As to the kind of experiment: flow cytometry on MDCK-hpIgR cells. (In general: Flow cytometry measures light scatter and fluorescence of single cells or particles in a stream.)
Procedure: Flow Cytometry was performed as follows. To test whether VHH-mono-Fc molecules recognize cell-surface hpIgR, Madin-Darby canine kidney (MDCK) cells engineered to express full-length hpIgR were used. Cells were cultured in Dulbecco's modified Eagle's medium containing 10% fetal calf serum at 37° C. with 5% CO₂. Cells were split into equal fractions (≈70,000 cells) and incubated with increasing concentrations of VHH-mono-Fc molecules for 30 min at 4 C. […] Cells were washed twice with cold staining buffer, resuspended in running buffer and analyzed with an iQue Screener (IntelliCyt Corporation). Binding was assessed by RL1 (A647) Geomeans from the live cell population and EC50 was calculated by fitting log VHH concentration versus MFI in Prism (Graphpad).
Experiment [12] deals with T10, human pIgR extracellular domain (ECD) (human, UniProt P01833 19-638).
T10 construct: also called hpIgR ECD
T10 sequence (P01833 other isoform, or with tags, fused parts or gaps): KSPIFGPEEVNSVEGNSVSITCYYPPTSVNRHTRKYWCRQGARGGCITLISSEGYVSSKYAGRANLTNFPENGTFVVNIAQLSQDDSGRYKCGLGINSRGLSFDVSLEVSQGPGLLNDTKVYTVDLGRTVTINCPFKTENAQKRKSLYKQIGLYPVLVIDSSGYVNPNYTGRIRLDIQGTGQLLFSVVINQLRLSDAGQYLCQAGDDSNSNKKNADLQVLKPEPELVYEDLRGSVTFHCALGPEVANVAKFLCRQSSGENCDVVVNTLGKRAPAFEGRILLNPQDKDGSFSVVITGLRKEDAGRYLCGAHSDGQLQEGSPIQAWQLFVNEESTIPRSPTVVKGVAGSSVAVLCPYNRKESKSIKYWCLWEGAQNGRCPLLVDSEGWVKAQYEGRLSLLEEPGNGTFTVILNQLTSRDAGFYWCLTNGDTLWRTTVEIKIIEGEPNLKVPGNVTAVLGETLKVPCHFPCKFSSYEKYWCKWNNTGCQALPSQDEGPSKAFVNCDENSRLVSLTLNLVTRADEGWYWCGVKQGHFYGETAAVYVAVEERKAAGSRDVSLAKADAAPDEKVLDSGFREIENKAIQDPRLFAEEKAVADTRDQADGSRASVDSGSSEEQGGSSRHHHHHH
As to the kind of experiment: BLI; summary table, repeats Table 1.

Experiment [13] has as its target T10, human pIgR extracellular domain (ECD). The experiment in a line: BLI; summary table, repeats Table 1. This is another data set of the same source.
Experiment [14] has the same target. The experiment in a line: BLI (Octet), VHH-mono-Fc and hpIgR ectodomain.
For experiment [15] the target is unchanged. The experiment in a line: ECL (MSD), hpIgR-ECD coated, anti-Fc detection.
For experiment [16] the target is unchanged. The experiment in a line: ECL (MSD), hpIgR-ECD coated, anti-VHH detection.
Procedure: To check whether VHH recognizes a buried epitope on pIgR, EC₅₀ values were measured for VHH-mono-Fc molecules binding to hpIgR-ECD protein by electrochemiluminescence using two different detection antibodies, an anti-Fc antibody and an anti-VHH antibody. pIgR ECD (10 μg/ml in PBS) was coated on high-bind MSD plates for 2 hours at RT with 1000 rpm, incubated with blocking buffer for 1 hour at RT, incubated with VHH-mono-Fc molecules (increasing concentrations in PBS) for 2 hours at RT with 1000 rpm, washed 3× with PBT, incubated with ruthenylated secondary antibody (2 μg/ml in PBS) for 1 hour at RT with 1000 rpm, washed 3× with PBT and read plates in 40 ul reading buffer using the MSD imager. EC50 was calculated by fitting log VHH concentration versus log ECLU in Prism (Graphpad). The increase in EC₅₀ (>50-fold) due to anti-VHH detection was used as a measure to determine whether VHH recognized buried epitope on pIgR.
Experiment [17] has the same target. The experiment in a line: ECL (MSD), anti-VHH detection against anti-Fc detection.
Experiment [18] has the same target. As to the kind of experiment: BLI (Octet RED384), 1:1 fit, 25 C, PBS.
For experiment [19], the target named is T9, human pIgR, full-length, on cells. The experiment in a line: flow cytometry on MDCK-hpIgR cells; summary table, repeats Table 1.
For experiment [20] the target is unchanged. The description is as above. This is another data set of the same source.
For experiment [21], the target named is T10, human pIgR extracellular domain (ECD). As to the kind of experiment: BLI (Octet RED384), 1:1 fit, 25 C, PBS; column kdis.
Experiment [22] addresses T1, human pIgR extracellular domain …. As to the kind of experiment: BLI (Octet RED384), 1:1 fit, 25 C, PBS; antigen printed 'hD4 D5'.
Procedure: (§1) Bio-layer Interferometry was performed as follows. […] Data were collected with Octet Data Acquisition version 7.1.0.87 (ForteBio) and analyzed using Octet Data Analysis version 7.1 (ForteBio). To measure binding kinetics between VHH-mono-Fc molecules and HIS-tagged pIgR proteins, VHH-mono-Fc was immobilized on amine-reactive generation-2 (ARG2) biosensors according to manufacturer's instructions and increasing concentrations of pIgR proteins were exposed to sensor-immobilized VHH. In some cases, HIS-tagged pIgR proteins were immobilized on anti-HIS biosensors and exposed to increasing concentrations of VHH-mono-Fc molecules. Association and dissociation rates were measured by the shift in wavelength (nm). […] All reactions were performed at 25° C. in PBS.
Experiment [23] has as its target T3, hpIgR_D3. The experiment in a line: ECL (MSD) heat map, HIS-tagged construct captured via anti-HIS, anti-human-Fc detection.
Procedure: (§2) A meso-scale discovery (MSD) platform was used for conducting epitope mapping and epitope burial studies. To test the binding of VHH-mono-Fc molecules to purified pIgR protein constructs, Streptavidin MSD plates were coated with a biotinylated anti-HIS antibody (2 μg/ml in PBS) for 1 hour at RT with 1000 rpm, washed 3× with PBT (PBS+0.1% Tween-20), incubated with blocking buffer for 1 hour at RT, incubated with His-tagged pIgR proteins (10 μg/ml in PBS) for 2 hours at RT with 1000 rpm, washed 3× with PBT, incubated with VHH-mono-Fc molecules (100 μg/ml in PBS) for 2 hours at RT with 1000 rpm, washed 3× with PBT, incubated with ruthenylated-anti-human-Fc antibody (2 μg/ml in PBS) for 1 hour at RT with 1000 rpm, washed 3× with PBT and read plates in 40 ul reading buffer using the MSD imager. ECLU values were plotted as a heatmap.
(§3) Binding of VHH-mFc molecules were tested to immobilized pIgR constructs by the electrochemiluminescence method.
Experiment [24] addresses T11, human pIgR extracellular domain 1 (D1) (human, UniProt P01833 19-127).
T11 construct: HIS-tagged construct made in HEK293 cells; also called hpIgR domain-1
The experiment is described as above.
Procedure: as §2, §3

Experiment [25] deals with T7, human pIgR extracellular domain 2 (D2). The description is as above.
Procedure: as §2, §3
Experiment [26] concerns the target T8, human pIgR extracellular domain 5 (D5). The description is as above.
Procedure: as §2, §3
Experiment [27] has as its target T4, hpIgR_D2-D3. The description is as above.
Procedure: (§4) The Electrochemiluminescence assay was performed as follows. A meso-scale discovery (MSD) platform was used for conducting epitope mapping and epitope burial studies. To test the binding of VHH-mono-Fc molecules to purified pIgR protein constructs, Streptavidin MSD plates were coated with a biotinylated anti-HIS antibody (2 μg/ml in PBS) for 1 hour at RT with 1000 rpm, washed 3× with PBT (PBS+0.1% Tween-20), incubated with blocking buffer for 1 hour at RT, incubated with His-tagged pIgR proteins (10 μg/ml in PBS) for 2 hours at RT with 1000 rpm, washed 3× with PBT, incubated with VHH-mono-Fc molecules (100 μg/ml in PBS) for 2 hours at RT with 1000 rpm, washed 3× with PBT, incubated with ruthenylated-anti-human-Fc antibody (2 μg/ml in PBS) for 1 hour at RT with 1000 rpm, washed 3× with PBT and read plates in 40 ul reading buffer using the MSD imager. ECLU values were plotted as a heatmap.
Experiment [28] addresses T12, human pIgR extracellular domain 1-domain 2 (D1-D2) (human, UniProt P01833 19-240).
T12 construct: HIS-tagged construct made in HEK293 cells
The description is as above.
Procedure: as §4

Experiment [29] deals with T1, human pIgR extracellular domain …. As to the kind of experiment: BLI (Octet RED384), 1:1 fit, 25 C, PBS; column kdis; antigen printed 'hD4 D5'.
Procedure: as §1

T9 sequence (P01833 19-764): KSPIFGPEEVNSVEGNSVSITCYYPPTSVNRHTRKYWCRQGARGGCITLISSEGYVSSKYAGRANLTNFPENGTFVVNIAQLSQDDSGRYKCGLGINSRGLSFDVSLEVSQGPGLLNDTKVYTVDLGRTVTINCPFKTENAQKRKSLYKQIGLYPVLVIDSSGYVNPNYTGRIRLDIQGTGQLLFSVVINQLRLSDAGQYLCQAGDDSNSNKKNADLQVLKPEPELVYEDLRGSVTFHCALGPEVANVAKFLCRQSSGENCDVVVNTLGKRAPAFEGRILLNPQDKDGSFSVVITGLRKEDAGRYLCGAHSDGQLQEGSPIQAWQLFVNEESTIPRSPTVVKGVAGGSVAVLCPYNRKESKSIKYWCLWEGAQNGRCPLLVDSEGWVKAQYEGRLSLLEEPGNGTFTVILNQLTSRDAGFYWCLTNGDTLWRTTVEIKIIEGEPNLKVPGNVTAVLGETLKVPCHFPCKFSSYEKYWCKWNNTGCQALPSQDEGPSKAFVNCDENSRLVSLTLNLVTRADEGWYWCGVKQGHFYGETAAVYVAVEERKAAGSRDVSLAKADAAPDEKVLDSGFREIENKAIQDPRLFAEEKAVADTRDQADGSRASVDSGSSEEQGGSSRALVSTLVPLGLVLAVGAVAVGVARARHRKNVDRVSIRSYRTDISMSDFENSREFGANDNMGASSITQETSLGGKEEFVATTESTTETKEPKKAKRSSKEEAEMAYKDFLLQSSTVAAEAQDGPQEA
T12 sequence (P01833 other isoform, or with tags, fused parts or gaps limits assumed): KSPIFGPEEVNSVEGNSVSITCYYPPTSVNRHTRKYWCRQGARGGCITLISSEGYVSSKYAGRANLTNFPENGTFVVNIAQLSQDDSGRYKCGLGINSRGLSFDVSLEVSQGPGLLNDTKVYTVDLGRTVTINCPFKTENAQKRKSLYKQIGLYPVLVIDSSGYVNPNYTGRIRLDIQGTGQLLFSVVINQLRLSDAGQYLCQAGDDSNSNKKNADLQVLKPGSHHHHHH
T11 sequence (P01833 other isoform, or with tags, fused parts or gaps limits assumed): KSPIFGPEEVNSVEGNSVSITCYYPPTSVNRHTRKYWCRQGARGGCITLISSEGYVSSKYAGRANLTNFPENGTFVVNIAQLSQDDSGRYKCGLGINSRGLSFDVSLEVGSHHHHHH
T2 sequence (P01833 240-459 limits assumed): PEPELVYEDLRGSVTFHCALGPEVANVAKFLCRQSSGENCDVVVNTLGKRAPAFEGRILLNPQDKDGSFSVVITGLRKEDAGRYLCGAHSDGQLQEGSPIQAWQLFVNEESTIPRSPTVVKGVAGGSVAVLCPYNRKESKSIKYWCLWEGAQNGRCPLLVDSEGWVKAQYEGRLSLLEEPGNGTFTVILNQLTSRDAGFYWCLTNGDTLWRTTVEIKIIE

B1: recombinant dimeric IgA2 construct (antibody)
heavy: QVQLVQSGAEVKKPGSSVKVSCKSSGGTSNNYAISWVRQAPGQGLDWMGGISPIFGSTAYAQKFQGRVTISADIFSNTAYMELNSLTSEDTAVYFCARHGNYYYYSGMDVWGQGTTVTVSSASPTSPKVFPLSLDSTPQDGNVVVACLVQGFFPQEPLSVTWSESGQNVTARNFPPSQDASGDLYTTSSQLTLPATQCPDGKSVTCHVKHYTNPSQDVTVPCPVPPPPPCCHPRLSLHRPALEDLLLGSEANLTCTLTGLRDASGATFTWTPSSGKSAVQGPPERDLCGCYSVSSVLPGCAQPWNHGETFTCTAAHPELKTPLTANITKSGNTFRPEVHLLPPPSEELALNELVTLTCLARGFSPKDVLVRWLQGSQELPREKYLTWASRQEPSQGTTTFAVTSILRVAAEDWKKGDTFSCMVGHEALPLAFTQKTIDRLAGKPTHVNVSVVMAEVDGTCY
light: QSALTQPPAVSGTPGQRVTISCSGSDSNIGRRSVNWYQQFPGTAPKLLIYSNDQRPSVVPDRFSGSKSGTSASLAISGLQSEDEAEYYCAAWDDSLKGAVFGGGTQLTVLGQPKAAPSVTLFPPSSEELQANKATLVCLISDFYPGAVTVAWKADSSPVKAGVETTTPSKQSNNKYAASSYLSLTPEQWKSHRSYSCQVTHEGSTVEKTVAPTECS
chain: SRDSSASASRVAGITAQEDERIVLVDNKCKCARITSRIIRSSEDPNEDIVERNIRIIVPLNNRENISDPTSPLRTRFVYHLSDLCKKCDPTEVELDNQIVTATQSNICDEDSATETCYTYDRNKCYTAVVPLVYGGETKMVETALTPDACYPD
notes: No sentence says outright that they are the dIgA2 of the assays; also called dIgA2; dIgA
In experiment [1], B1 registered a koff of 0.0801 s⁻¹. In addition, in [1], the kon was found to be 78400 M⁻¹ s⁻¹. For the same molecule, the binding result (with hD3-D4; in the experiment with hpIgR_D3 [2]; with hpIgR_D2-D3 [3]; in experiment [4]; in [5]; in [6]) was “no binding” throughout. In experiment [7], the binding result is given as “no binding”. This molecule registered a Kd in experiment [8] of 1000 nM.

B2: VHH5-linker-mono-Fc protein (Fc fusion)
chain: QVQLVESGGGLVQAGGSLRLSCAASGRTFSSYAMGWFRQAPGKEREFVAAITWNGGTTYYADSVKGRFTISRDNAKNTVYLQMNSLKPEDTAVYYCAADPFNQGYWGQGTQVTVSSEPKTPKPQPQPQLQPQPNPTTESKSPKSPAPELLGGPSVFLFPPKPKDTLMISRTPEVTCVVVDVSHEDPEVKFNWYVDGVEVHNAKTKPREEQYNSTYRVVSVLTVLHQDWLNGKEYKCKVSNKALPAPIEKTISKAKGQPREPQVYTKPPSREEMTKNQVSLSCLVKGFYPSDIAVEWESNGQPENNYKTTVPVLDSDGSFRLASYLTVDKSRWQQGNVFSCSVMHEALHNHYTQKSLSLSPGK
notes: made in CHO cells; also called VHH5-mono-Fc; hpIgR_175
In the case of B2, in experiment [9], the “Transcytosis (Fold Incr.)” value turned out to be 6.9 fold. In [10], the “For. Trans. (Fold Incr.)” value was 8.9 fold. Also, in experiment [10], the “Rev. Trans (Fold Incr.)” value came to 2.1 fold. Also, the EC50 in experiment [11] stood at 4.3 nM; in experiment [15], 0.3 nM; in experiment [16], 178 nM; in [19], 4.3 nM; in [20], 4.3 nM. Also, the Kd in [12] was found to be 11 nM; in [13], 11 nM; in experiment [14], 11 nM; in [18], 10 nM; in experiment [22], 11.6 nM. For the same molecule, the “Fold change in EC50” value in experiment [17] is 592 fold. The kon in experiment [18] worked out at 145000 M⁻¹ s⁻¹; in [22], 111000 M⁻¹ s⁻¹. Moreover, the koff worked out at 0.00145 s⁻¹ in experiment [21] and 0.00128 s⁻¹ in [29]. For the same molecule, the binding result (with hpIgR_D3 [23]; in [24]; in experiment [25]; in [26]; with hpIgR_D2-D3 [27]; in [28]) was “no binding (tested: 100 ug/ml (single concentration))” each time.
